The record followed here is paper PMC3399765 (2011).

The target of the assay is SMB20 peptide (Homo sapiens, UniProt P14678). The assay is described as follows: ITC. In general terms: ITC needs no label: the signal is the heat of the interaction.

B1: FBP21 WW domains (protein)
chain: DPSKGRWVEGITSEGYHYYYDLISGASQWEKPEGFQGDLKKTAVKTVWVEGLSEDGFTYYYNTETGESRWEKPDD
As for B1, the Kd came out at 16.4 µM.

As a reminder, the Kd is the equilibrium constant for the complex coming apart.
